Data taken from patent US20260207757A1.

What was measured:
[1] = target: type 1 IGF receptor (IGF-1R) (human) (UniProt P08069); experiment: displacement of 125I-IGF-1 from MCF7 cells, 4 C overnight
[2] = target: type 1 IGF receptor (IGF-1R) (human) (UniProt P08069); experiment: competition binding to IGF receptors against radioactive wild type IGF

Chain of type 1 IGF receptor (IGF-1R) (human) (P08069 31-1367): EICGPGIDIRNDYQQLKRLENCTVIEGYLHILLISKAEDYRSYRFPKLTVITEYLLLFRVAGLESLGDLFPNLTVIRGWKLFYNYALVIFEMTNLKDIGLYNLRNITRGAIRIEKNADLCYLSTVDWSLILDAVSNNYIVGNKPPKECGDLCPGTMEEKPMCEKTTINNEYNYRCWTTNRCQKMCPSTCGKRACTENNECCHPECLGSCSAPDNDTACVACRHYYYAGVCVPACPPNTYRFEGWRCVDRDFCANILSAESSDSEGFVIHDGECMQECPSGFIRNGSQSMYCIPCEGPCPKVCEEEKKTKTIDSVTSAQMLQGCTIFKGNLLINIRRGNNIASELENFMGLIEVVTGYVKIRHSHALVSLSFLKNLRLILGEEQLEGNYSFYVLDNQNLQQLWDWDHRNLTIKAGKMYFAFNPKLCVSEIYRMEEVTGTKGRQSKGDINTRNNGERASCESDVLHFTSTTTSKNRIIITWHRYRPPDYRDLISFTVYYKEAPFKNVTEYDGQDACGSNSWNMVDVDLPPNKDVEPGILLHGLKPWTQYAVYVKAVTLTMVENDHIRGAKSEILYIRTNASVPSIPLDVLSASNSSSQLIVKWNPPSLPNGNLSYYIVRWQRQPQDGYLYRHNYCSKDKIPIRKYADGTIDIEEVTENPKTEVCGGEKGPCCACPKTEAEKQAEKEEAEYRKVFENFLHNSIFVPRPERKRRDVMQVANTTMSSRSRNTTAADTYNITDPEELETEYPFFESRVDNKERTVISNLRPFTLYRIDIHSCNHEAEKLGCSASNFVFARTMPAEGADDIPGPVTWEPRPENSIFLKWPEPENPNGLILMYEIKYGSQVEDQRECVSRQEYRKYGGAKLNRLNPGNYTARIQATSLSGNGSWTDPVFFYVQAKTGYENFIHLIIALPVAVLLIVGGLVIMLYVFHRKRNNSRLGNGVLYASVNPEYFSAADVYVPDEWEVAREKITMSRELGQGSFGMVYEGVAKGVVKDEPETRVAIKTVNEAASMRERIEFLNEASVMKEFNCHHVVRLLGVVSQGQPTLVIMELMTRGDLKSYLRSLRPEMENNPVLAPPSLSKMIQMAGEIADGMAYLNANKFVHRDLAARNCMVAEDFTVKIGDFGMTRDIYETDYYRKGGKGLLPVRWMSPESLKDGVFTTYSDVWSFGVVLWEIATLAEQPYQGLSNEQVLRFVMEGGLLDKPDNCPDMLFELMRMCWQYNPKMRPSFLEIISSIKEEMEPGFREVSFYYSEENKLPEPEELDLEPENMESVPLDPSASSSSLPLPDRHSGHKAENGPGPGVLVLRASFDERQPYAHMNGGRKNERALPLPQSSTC

Kd [1]: 3 nM
Kd [2]: 1 nM
Substance: long-R3-IGF (ligand)
